Experiments:
[1] = tested on: transgenic Arabidopsis thaliana plant body (luciferase reporter gene); assay: luciferase assay of promoter::LUC transgenic plants after environmental stress application; assay type: in vivo; conditions: for Tissue in which specific induction of expression is realized / time after stress application at which activity to induce gene expression is exhibited: Dehydration stress; for time after stress application at which activity to induce gene expression is lowered: dehydration stress, stem and leaf tissue; for Tissue allowing specific induction: summary over stress types
Protocol: Specifically, promoter regions were isolated from these genes, transgenic plants in which luciferase reporter genes were to be expressed under the control of such promoters were prepared, and tissue specificity of the promoters was inspected via luciferase assay.
In this example, DNA fragments containing promoter regions of the genes identified in Example 1 were recovered via PCR.
The nucleotide sequences of the amplified DNA fragments were determined in accordance with a conventional technique to confirm that mutagenesis, such as substitution or deletion, was not introduced thereinto. After the absence of mutagenesis was confirmed, the recovered DNA fragments were introduced into the vector for promoter analysis (i.e., a vector prepared by introducing the Gateway recombinant sequence (tradename: Gateway Vector Conversion System, Invitrogen) and the luciferase reporter gene into the pGreen vector (Plant Molecular Biology 42: 819-832, 2000)) using the Gateway recombination system to construct a recombinant vector.
The recombinant vector prepared in (1) above was introduced into a plant via Agrobacterium infection. When a gene is introduced via Agrobacterium infection, a process of infecting a plant with Agrobacterium containing a plasmid comprising the target gene construct is necessary. This process was carried out via vacuum infiltration. Specifically, a plant body of Arabidopsis thaliana that had been grown in soil comprising vermiculite and an equivalent amount of pearlite was soaked in a culture solution of Agrobacterium containing the recombinant vector prepared in (1). The resultant was placed in a desiccator, suctioned with a vacuum pump to 65 to 70 mmHg, and then allowed to stand at room temperature for 5 to 10 minutes. The pot was transferred onto a tray, covered with a wrap, and kept moistened. The wrap was removed on the following day, the plant was allowed to grow in that state, and seeds were then harvested.
Subsequently, seeds were sown on MS agar medium to which antibiotic hygromycin has been added in order to select an individual having the recombinant vector prepared in (1). Arabidopsis thaliana that had been grown in this medium was transferred to a pot and allowed to grow therein. Thus, seeds of transgenic plants to which the recombinant vector prepared in (1) has been introduced were obtained.
The seeds of the transgenic plant lineage prepared in (2) were sowed on MS agar medium. The plant body 10 days after sowing was used for luciferase assay.
At the outset, 1 mM luciferin (containing 0.01% Triton-X) was sprayed over the entire plant body 5 times. After the plant body was allowed to stand in the dark for 5 minutes, luciferase luminescence was assayed using ARGUS (assay after treatment for 0 hours). Subsequently, various types of environmental stresses were applied (see below). Low-temperature stress application was carried out by introducing a plate containing a plant body into a low-temperature chamber (4° C.). Dehydration stress application was carried out by capturing the plant body with forceps while refraining from damaging the plant body, roughly removing moisture from the plant body on a Kim Towel, placing the plant body on another plate, placing the plate in a clean bench while leaving the lid open, letting it stand for 2 hours, and then closing the lid. Salt stress application was carried out by dispensing a mixture of MS medium (containing 1% sucrose, 0.1% agar, and 1 mM luciferin) with 250 mM NaCl to the roots of the plant bodies (200 μl per plant body) using a Pipetman. ABA stress application was carried out by dispensing a mixture of MS medium (containing 1% sucrose, 0.1% agar, and 1 mM luciferin) with 100 μM ABA to the roots of the plant bodies (200 μl per plant body) using a Pipetman.
Luciferase luminescence was assayed 2, 5, and 10 hours after the above various types of environmental stresses had been applied using the ARGUS system (Hamamatsu Photonics). […]

[2] = tested on: Arabidopsis thaliana (columbia ecotype) plant body; assay: full-length cDNA microarray analysis of gene expression levels after environmental stress application; conditions: in vivo
Protocol: In this example, the gene expression levels at the time of application of various types of environmental stresses were analyzed using microarrays. Specifically, the microarrays described in Seki et al., “Monitoring the expression profiles of 7000 Arabidopsis genes under drought, cold, and high-salinity stresses using a full-length cDNA microarray,” Plant J. 31: 279-292, 2002, were used, and analysis was carried out in accordance with the method similar to the method described therein. Various types of environmental stresses were applied to a plant body under the following conditions. Specifically, low-temperature stress application was carried out by introducing a plate containing a plant body into a low-temperature chamber (4° C.). Dehydration stress application was carried out by capturing the plant body with forceps while refraining from damaging the plant body, roughly removing moisture from the plant body on a Kim Towel, placing the plant body on another plate, placing the plate in a clean bench while leaving the lid open, letting it stand for 2 hours, and then closing the lid. Salt stress application was carried out by dispensing a mixture of MS medium (containing 1% sucrose, 0.1% agar, and 1 mM luciferin) with 250 mM NaCl to the roots of the plant bodies (200 μl per plant body) using a Pipetman. ABA stress application was carried out by dispensing a mixture of MS medium (containing 1% sucrose, 0.1% agar, and 1 mM luciferin) with 100 μM ABA to the roots of the plant bodies (200 μl per plant body) using a Pipetman. As a plant body to which environmental stress is to be applied, Arabidopsis thaliana (columbia ecotype), which had been cultivated on a germination medium containing Murashige and Skoog Salt, 3% sucrose, and […] for 3 weeks, was used. Cultivation conditions were determined so as to maintain the temperature in the chamber at 22° C. with a 16-hour light period and an 8-hour dark period. Total RNA was extracted from plant bodies after environmental stress application or from plant bodies to which no environmental stress had been applied using the TRIZOL Reagent (Life Technologies), and mRNA was extracted using the mRNA isolation kit (Militenyi Biotec Auburn). In accordance with the method described in the above article, mRNA samples were reversely transcribed in the presence of Cy3 dUTP or Cy5 dUTP (Amersham Pharmacia). Microarray analysis was carried out using cDNAs obtained via reverse transcription. Data obtained via microarray analysis were analyzed using the Quantarray Version 2.0 (GSI Lumonics).

B1: Promoter of RAFL06-16-J10: environmental stress responsive promoter DNA, SEQ ID NO: 5, upstream of At2g06050 (OPR3 gene) (nucleic acid, listed as Arabidopsis thaliana)
DNA: CCTGGGACTTGGGCTGAGAATAATGAAGTGGCTGGGAAATGATTAGTTAAGGATGGCTTGATGAATTCTCAATATTCTGTTGAGGGAACAAAATATACTAGGAAGGATGCAAGTCCAGTTTGGTCTAAACCATTGTACGAACCAAAAACAATCAATAAAGTAACTCAGGGCTCACAAATGGTCGATAATATTTCTAAAGTTTCAGTTCTAGAGGATGAGCAAAAGGATTTGATGATGGGAGATGTACTAGAGGTACAAGACAAGAGTCTCACTGAAGGGTTGAATTTCAGATATTTTAAATCACGTTTGGAGTAACAAAAAACAAATGTGAGAAGGAGCTCAATTAGCTCCAACTGAATCTAGTGTTATTAGGGATACTTTGGAAACTCCAATTCAATCTTTAAGATGTAGGATTGATGAATTCATGGAAATCGGCAGATCCATCTATGAATTTAGTATGGTGGTGTTTCCTAGGAATTGACAATACAATTTTACTTGGTGCAAAGTGTCTTCGGAGGTGTCCCTTTCTTTTTCACTCGGAATTGGAAGTTTTAATATTGGCAATAAAAAATATCCTTTCAAGAAGGATAAAGTGTCAGGCATTTGAAACAGATAATTATTCAGAGTAAGTTTTGATGGTACAGTCCCCTGAAGAATGACTCGCTTTCTCTAATTTTTTAGAAGATCTTGAATTGCTATGTGTCTCCTTTTCTTGCTTTCTTCTATTTCATGTTTATGTAATACTAAGGCAAACTATTTAGCACAATATTCTAAACTTTTATTTTCTGAAGTTATTTTTTAAACCCTTTCCCTCCTAATTGGACAACCAATCATGGAATTAGTTTTTACGTAATGTTTTAAACTCACTATTTCACCTTTATTCTGACCTGTTAATGGAAGACAACTATGACTTTATACATTGAAATGTTGTCAACCTGTTATATATTAATGTTAACATAGCTAATGACCTATCAATGTACGTAAAGCGAATGTCAATCATATTCGTATCCGTTAATTTCATTTAGGAAATCAGGCTCATTGCCAATCCACTAAGAAACATCTCTGATAGATCCAAATAATAAAAATAATATAATATGAAGCAAAATAGAACGAAATATCTCACGCGGACCAAACTTTGAACTTTATTATAAAACAAATCAGCACGTGAAAGTAATGGTCGGTTCGGTCCAAGATGCCAAGAACTCCTCCGGTCCATCCATCAACCTAACCTTTTTTGGATATAAAATTTAGCAAATTCCATTTCCACGACCACACAACAACAACACATCCACTCGAATTTTCTATTTCCGAATAACAAAACCGGTAAACTCATCACAAACTTAAGTTACTTTGTAGTTTGTGTTTTGTCCTTTTATGTAATGAAGAAGATCCAACTAACTACTACTCAATATTTTTGTATTGACCGTTGATTTCTCAGATCTGACTTTTACTTCTCCTTCTTCCAGATCGGCGGAGAC
[1]
  Tissue in which specific induction of expression is realized: Stem and leaf tissue
  time after stress application at which activity to induce gene expression is exhibited: about 2 hours
  time after stress application at which activity to induce gene expression is lowered: about 10 hours
  Tissue allowing specific induction: Stem and leaf tissue
[1]; listed as promoter of RAFL06-16-J10
  Tissue in which specific induction of expression is realized: stem and leaf tissue
[2]
  Environmental stress type to which the promoter responds: Dehydration and salt

B2: Promoter of RAFL07-08-I12: environmental stress responsive promoter DNA, SEQ ID NO: 6, upstream of At2g26530 (homolog of calmodulin-binding protein) (nucleic acid, listed as Arabidopsis thaliana)
DNA: CGGGTTTTATTTTGGAATTGGGTTATATGGTGGATGTATTTGAATCAATATTTATAAAAATTTAACAATTATCTCATGGATTCGTGGTATAACGTTACCTAATAACAATTATAAACTGTAAAATAAAAATATTTTATAAAAATAAAATTTGCAAGTTTTAATATATATTACTTTTAAAAAATAAATCGTCCCGCGGTATACCGCGGGTTAAAATCTAGTCTATGTTTATTATAAAAGAATACAATGTATTAATGTATAAATTATCTTATGCATGAGCACGATGATCATCTAGTAGTATACATCTTACCCGTCGACAAAAACAAAATGTTCCTTATCCAGTATCTAGATGGATCGTGTGAACTCAATTCTACGTAGAACACAAAAGTCCTCTCGTTTGGTCACTGAATTAATTTGAACGATATTATTTATTAGGACCACCGGTTAAATTGGCCTCGTGGTCTAAATATGCCTTCGAATGGTCCAACAACCATGTGGTCAATGCCGACTATGAAAATGACTGAAAATTCAAAACATGTAAGTGGGTTACCACCACTTATCATTATGTTCCAAATCGTTTGCATTAAACAACTTTATTTCGACACATGCGGTCTGAAAAGGCGGCCAATTAATTTACGTTAATCATCGTTTACTATTATTATCTTCGGAATATTTCCAACACAATCAATCTAGTTGGTTCCAATTCTCATCACATATTTTATTTTATAGTTTAAAGTCTTTCAATTCAGTAGTCTAACTGTATAACATATGACTTCGAACAGATTGATATAGACCACTCAATCTAATAATATCGTTTTAGCTACGAAGAGTATACAAAAAAAGCTAGTTGGATAGTTTAAAAATTAAATGCTAGAAGAATGTTGGATATATCAAACAATAAAATTAATATTTAGAGAGAAAATATCGTAATAGAGTTTTTTCTATAAATAAATTTTTGAGTTAAAAAATATTATTAGCCTGACCAAACTCTTTTTATTTCTTTAAACTATGACAGTAAGATCTAAATTTTAATAAACCAATGTTTATTTAATATTTTCAGAAATGGGCTAAAAATGACTAGTTGTTGTATGTGTTTCCTTTGAATAAAAGCTCAACAAACAAAAACTAGAAGTCATTATGTAAAAAAACTAATGACATAGTATTAGGTATTTTTTGCAAATTATTCACACATGTTGCCAAAAGTTGTTTTTTATATTATATGTTTGGTCAGCGAAAACGGTTTAAAGCACTCTCTCTTTCCTCTCGCCTTCCTTTGATGATCCTTTTTAGTTCCCTTCTTCTCATTGCTCTTGAGACCATCTCCGAACTCAAAGGAAACTAGAAACA
[1]
  Tissue in which specific induction of expression is realized: Stem and leaf tissue
  time after stress application at which activity to induce gene expression is exhibited: about 2 hours
  time after stress application at which activity to induce gene expression is lowered: about 5 hours
  Tissue allowing specific induction: Stem and leaf tissue
[1]; listed as promoter of RAFL07-08-I12
  Tissue in which specific induction of expression is realized: stem and leaf tissue
[2]
  Environmental stress type to which the promoter responds: Dehydration and salt

— US20090282582A1, “ENVIRONMENTAL STRESS RESPONSIVE PROMOTER AND METHOD OF TISSUE-SPECIFIC GENE EXPRESSION USING THE SAME” (RIKEN, priority 2006, published 2009)
